Assay results: PMC8699947, “Study of ALDH from Thermus thermophilus—Expression, Purification and Characterisation of the Non-Substrate Specific, Thermophilic Enzyme Displaying Both Dehydrogenase and Esterase Activity” (Cells, 2021)

How the values were obtained:
[1] = target: ALDHTt, aldehyde dehydrogenase from Thermus thermophilus (Thermus thermophilus); assay: SEC; HiLoad 16/60 Superdex 200 pg, 50 mM Tris-HCl pH 7.5, 5 mM β-mercaptoethanol, 150 mM NaCl, flow rate 1 mL/min; last step of the purification; no calibration told
purified protein [2] = substrate: CCCCCC=O; assay: purified protein; conditions: 2 mM NAD+, 10 mM potassium phosphate pH 8, 50 °C
purified protein [3] = substrate: NC(=O)c1ccc[n+]([C@@H]2O[C@H](COP(=O)(O)OP(=O)(O)OC[C@H]3O[C@@H](n4cnc5c(N)ncnc54)[C@H](O)[C@@H]3O)[C@@H](O)[C@H]2O)c1; assay: purified protein; assay type: biochemical, Thermus thermophilus; conditions: 2 mM hexanal, 10 mM potassium phosphate pH 8, 50 °C, varied: cofactor
purified protein [4] = substrate: O=Cc1ccc(C=O)cc1; assay: purified protein; assay type: biochemical, Thermus thermophilus; conditions: 2 mM NAD+, 10 mM potassium phosphate pH 8, 50 °C
purified protein [5] = substrate: O=Cc1ccccc1; assay: purified protein; assay type: biochemical, Thermus thermophilus; conditions: 2 mM NAD+, 10 mM potassium phosphate pH 8, 50 °C

Question: Which stoichiometry N [1] does the source give for “ALDHTt, aldehyde dehydrogenase from Thermus thermophilus (enzyme)” here?
Answer: 4

B1: ALDHTt (Thermus thermophilus HB27) (protein)
chain: MRKAAGKYGNTLEFGHLVGGEEVLEGPLLERRNPSDREDVVARFPEADKDLVRKAALKAREAFAEWSRTPAPIRGQVLFNLVKILEREKPTLTRLMVREVGKTPKEAAGDVQEAIDTALFFASEGRRLYGQTVPSEMRDKELFTFRRPLGVVGIITAGNFPIAVPSWKLIPAVLTGNTVVWKPSEDAPTLSFVFAKLFEEAGLPPGVLNVVFGGGKGSTGQWMVELMDEGLFQKFAFTGSTQVGRWIGEVAGRNLIRPTLELGGKNPLVVMRDADLDLAVEGAWWSAFATGGQRCTSAGNILVDAPIYEEFKRRFLERVEATLVGNPLLHPEVTYGPFINERFFARWQEHYRVGEAEGARLLFGRGRITRENPYPRFLGDPEAGLYGWPTVWEVRPGTRLFTEEVFGPTINLVKVDGIEEAIAVANSTPYGLSSAIYTNHRHWAYLFKVGIRAGMTSINNATVGAEAHLPFGGVKASGNGGRESGIWVLEEYTYWHAVNEEYSGRLQLAQMDTGYVSPKAPTPWGEVLGL
notes: full-length, his-tagged (pET-22b(+)-ALDHTt), E. coli BL21(DE3); homotetramer with C-terminal tail
Question: With B1 as the molecule, how does the Km (purified protein [2]) read?
Answer: 990 ± 240 µM

Question: What about the Vmax (purified protein [2]) of the same molecule?
Answer: 0.027 µmol/min

Question: What about the kcat (purified protein [2]) of the same molecule?
Answer: 5.71 s⁻¹

Question: And the Km (purified protein [3])?
Answer: 9.2 µM

Question: And the Km (purified protein [4])?
Answer: 380 ± 110 µM

Question: And the Vmax (purified protein [4])?
Answer: 0.047 µmol/min

Question: What about the kcat (purified protein [4]) of the same molecule?
Answer: 12.1 ± 2.5 s⁻¹

Question: What about the Km (purified protein [5]) of the same molecule?
Answer: 1520 ± 510 µM

Question: What about the Vmax (purified protein [5]) of the same molecule?
Answer: 0.0057 µmol/min

Question: And the kcat (purified protein [5])?
Answer: 1.46 ± 0.29 s⁻¹
